T1: Kae1‐Pcc1 subcomplex (2Kae1:2Pcc1), co-expressed in E. coli (Saccharolobus islandicus REY15A, UniProt F0NFC9 1-331; F0NF65 1-91)
T1 construct: Kae1 of Saccharolobus islandicus REY15A, no tag; Pcc1 of Saccharolobus islandicus REY15A, encoded by SiRe_1278; The preformed complex (chains as m11 and m16) to which Pcc1-like was added; after addition the product is 1:1:1; also called 2Kae1:2Pcc1 subcomplex; Kae1‐Pcc1‐Pcc1‐Kae1; source: E. coli BL21(DE3)-Codon plus-RIL, pRSF-Duet1, no-tagged SisKae1 co-expressed with His-tagged SisPcc1; …
T1 sequence (looked up) 1: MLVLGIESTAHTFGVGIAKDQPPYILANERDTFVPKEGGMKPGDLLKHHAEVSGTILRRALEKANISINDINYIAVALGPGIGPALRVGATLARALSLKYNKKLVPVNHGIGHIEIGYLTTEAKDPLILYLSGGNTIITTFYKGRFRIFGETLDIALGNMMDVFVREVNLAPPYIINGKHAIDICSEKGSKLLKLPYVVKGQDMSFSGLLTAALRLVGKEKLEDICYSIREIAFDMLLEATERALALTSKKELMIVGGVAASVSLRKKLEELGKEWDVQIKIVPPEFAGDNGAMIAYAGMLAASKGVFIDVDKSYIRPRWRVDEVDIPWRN
T1 sequence (looked up) 2: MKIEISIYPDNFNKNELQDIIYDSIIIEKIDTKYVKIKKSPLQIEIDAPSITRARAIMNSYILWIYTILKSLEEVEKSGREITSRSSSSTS

T2: His-tagged SisPcc1 co-expressed with no-tagged SisKae1 in E. coli (Saccharolobus islandicus REY15A, UniProt F0NF65 1-91)
T2 construct: Pcc1 of Saccharolobus islandicus REY15A, encoded by SiRe_1278; Pcc1 is insoluble when expressed alone in E. coli; also called His‐Pcc1; source: E. coli BL21(DE3)-Codon plus-RIL, pRSF-Duet1, co-expressed with no-tagged SisKae1; pulled down and co-purified (Ni-NTA, HiTrap Q FF, Superdex 200)
T2 sequence (looked up): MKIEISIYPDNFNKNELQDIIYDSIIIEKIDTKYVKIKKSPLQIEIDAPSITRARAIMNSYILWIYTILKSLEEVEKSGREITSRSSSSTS


Experiments:
[1] = biological target: Flag-tagged SisKae1 co-expressed with His-tagged SisPcc1-like in E. coli (Saccharolobus islandicus REY15A); test: SEC; co-expressed Kae1/Pcc1-like, Pcc1-like about 10-fold in excess of Kae1; Superdex 200 Increase 10/300; 200 mM NaCl, 50 mM Tris-HCl pH 8.0, 5% glycerol
[2] = biological target: T1, Kae1‐Pcc1 subcomplex (2Kae1:2Pcc1), …; test: SEC; 1.5-fold Pcc1-like added to the 2Kae1:2Pcc1 subcomplex, 60°C for 30 min before loading; Superdex 200 Increase 10/300; 200 mM NaCl, 50 mM Tris-HCl pH 8.0, 5% glycerol; conditions: both partners purified
[3] = biological target: SisKae1 mixed in five-fold excess with SisPcc1-like for SEC (Saccharolobus islandicus REY15A); test: SEC; Kae1 in five-fold excess: 6 μM SisPcc1-like mixed with 30 μM SisKae1, 60°C for 30 min before loading; Superdex 200 Increase 10/300; 200 mM NaCl, 50 mM Tris-HCl pH 8.0, 5% glycerol
[4] = biological target: T2, His-tagged SisPcc1 co-expressed with …; test: SEC; co-expressed Kae1/Pcc1 subcomplex; Superdex 200 Increase 10/300; 200 mM NaCl, 50 mM Tris-HCl pH 8.0, 5% glycerol; masses from protein standards; conditions: both partners purified

Row | stoichiometry N (Pcc1-like per Kae1) [1] | stoichiometry N [2] | stoichiometry N (Pcc1-like per Kae1) [3] | stoichiometry N [4] | Binder
1 | 2 | 1 Kae1:Pcc1:Pcc1-like 1:1:1 | 1 |  | His-tagged SisPcc1‐like from E. coli (natural protein, Saccharolobus islandicus REY15A, UniProt F0NIH8 1-81, looked up, Pcc1-like (Gon7-like) of Saccharolobus islandicus REY15A, encoded by SiRe_1701; also called His‐SisPcc1‐like; source: E. coli BL21(DE3)-Codon plus-RIL, pRSF-Duet1 (alone, or co-expressed with Flag-tagged SisKae1 or SisPcc1); purified (Ni-NTA, HiTrap Q FF, Superdex 200)) MIELRILSEHEDAELIIRSLNVDNVNLPEGMSIQTKVEGKELEIVIKMRITKPNDLMTVRNTADEILAHIKALQSSFDAIS
2 |  |  |  | 1 Kae1 per Pcc1 (printed as 2:2) | No-tagged SisKae1 from E. coli (natural protein, Saccharolobus islandicus REY15A, UniProt F0NFC9 1-331, looked up, Kae1 of Saccharolobus islandicus REY15A, no tag; Two vectors (pET15b alone; pRSF-Duet1 with His-Pcc1) give the same untagged protein; source: E. coli BL21(DE3)-Codon plus-RIL; alone (pET15b), purified; also co-expressed with His-tagged SisPcc1 (pRSF-Duet1), pulled down and co-purified) MLVLGIESTAHTFGVGIAKDQPPYILANERDTFVPKEGGMKPGDLLKHHAEVSGTILRRALEKANISINDINYIAVALGPGIGPALRVGATLARALSLKYNKKLVPVNHGIGHIEIGYLTTEAKDPLILYLSGGNTIITTFYKGRFRIFGETLDIALGNMMDVFVREVNLAPPYIINGKHAIDICSEKGSKLLKLPYVVKGQDMSFSGLLTAALRLVGKEKLEDICYSIREIAFDMLLEATERALALTSKKELMIVGGVAASVSLRKKLEELGKEWDVQIKIVPPEFAGDNGAMIAYAGMLAASKGVFIDVDKSYIRPRWRVDEVDIPWRN
